{"source": "paper PMC8778713", "about": "“Knockout of Arabidopsis thaliana VEP1, Encoding a PRISE (Progesterone 5β-Reductase/Iridoid Synthase-Like Enzyme), Leads to Metabolic Changes in Response to Exogenous Methyl Vinyl Ketone (MVK)” (Metabolites, 2021)", "proteins": {"B1": {"name": "rAtStR2 (A. thaliana steroid reductase 2) (Arabidopsis thaliana) (protein)", "chain": "MGSENGSLMRRNEVDENVALIFGVTGLVGREIVKTLLMSKPGWRIYGVARNPEINSMTKMYNFISCDLLNASETKQRLSPLQDIVSHVFWVTWSGEFPLDTDECCVQNKTMLMNALDAILPNAKRLKHFSLQTGMKHYVSLVEETMARGEGSSLYYYSEECPRKSSGKNFYYVLEDLLKEKITRSSVVWSVQRPGLLMGSSSRTLYNFMGSLCVYGAMCKYLNLPFVFGGTRECWEESYIDGSDSNLVAEQHIFAATSGKVREKGEAFNAINGVGFTWKEIWPEIGKKLGVQVNETTMFDEGFWFGREMVERKHVWDEIVVKEKLVRTEIEDLANWYFLDALFRCPFKLLGKREKVDRFGFKRKYRTLDSVLYWIDVMRDEKLIPL", "notes": "tag removal not mentioned"}}, "assay_in_all_cases": "purified protein", "assay_type_in_all_cases": "biochemical, Arabidopsis thaliana", "key": {"purified protein [1]": {"substrate": "C=CC(C)=O", "settings": "0.2 mM NADPH; substrate 0.05 to 1.6 mM"}, "purified protein [2]": {"substrate": "CC(=O)[C@H]1CC[C@H]2[C@@H]3CCC4=CC(=O)CC[C@]4(C)[C@H]3CC[C@]12C", "settings": "0.2 mM NADPH; substrate 0.05 to 1.6 mM"}, "purified protein [3]": {"substrate": "NC(=O)C1=CN([C@@H]2O[C@H](COP(=O)(O)OP(=O)(O)OC[C@H]3O[C@@H](n4cnc5c(N)ncnc54)[C@H](OP(=O)(O)O)[C@@H]3O)[C@@H](O)[C@H]2O)C=CC1", "settings": "progesterone as the substrate; varied: cofactor"}}, "data": [{"protein": "B1", "values": [{"measurement": "Km", "setting": "purified protein [1]", "value": 157.5, "unit": "µM"}, {"measurement": "kcat", "setting": "purified protein [1]", "value": 0.03, "unit": "s⁻¹"}, {"measurement": "kcat/Km", "setting": "purified protein [1]", "value": 163, "unit": "M⁻¹ s⁻¹"}, {"measurement": "Km", "setting": "purified protein [2]", "value": 64.7, "unit": "µM"}, {"measurement": "kcat", "setting": "purified protein [2]", "value": 0.15, "unit": "s⁻¹"}, {"measurement": "kcat/Km", "setting": "purified protein [2]", "value": 2310, "unit": "M⁻¹ s⁻¹"}, {"measurement": "Km", "setting": "purified protein [3]", "value": 41.0, "unit": "µM"}, {"measurement": "kcat", "setting": "purified protein [3]", "value": 0.12, "unit": "s⁻¹"}, {"measurement": "kcat/Km", "setting": "purified protein [3]", "value": 2930, "unit": "M⁻¹ s⁻¹"}]}]}
